Measurements reported in paper PMC3195669 (Biologics : Targets & Therapy, 2011).

Biological target: the molecule itself
Assay: SDS-PAGE without heat denaturation or reducing agent

B1: recombinant mouse full-length adiponectin subfractions, unlabeled (natural protein, UniProt Q60994 18-247, looked up)
chain: EDDVTTTEELAPALVPPPKGTCAGWMAGIPGHPGHNGTPGRDGRDGTPGEKGEKGDAGLLGPKGETGDVGMTGAEGPRGFPGTPGRKGEPGEAAYVYRSAFSVGLETRVTVPNVPIRFTKIFYNQQNHYDGSTGKFYCNIPGLYYFSYHITVYMKDVKVSLFKKDKAVLFTYDQYQEKNVDQASGSVLLHLEVGDQVWLQVYGDGDHNGLYADNVNDSTFTGFLLYHDTN
stoichiometry N: 6
